Among the data in article PMC8442604 are other and Kd values, retold here.

For assay [1], the target named is SARS-CoV-2 RBD protein (321–591) (SARS-CoV-2) (UniProt P0DTC2).
For assay [2] the target is unchanged. Kind of assay: SPR. Background: SPR reads the build-up and loss of mass on a sensor chip optically.

In assay [1], P2B-2F6 (antibody) returned an other of 37.5 µg/mL. Moreover, the Kd in assay [2] stood at 0.81 nM.

For orientation: Kd means a measure of binding affinity in units of concentration.
